Measurements from IntAct's records for PubMed 32296183.

B1: Catenin alpha-3 (Homo sapiens), Q9UI47-2 (parent)
chain: MSAETPITLNIDPQDLQVQTFTVEKLLEPLIIQVTTLVNCPQNPSSRKKGRSKRASVLLASVEEATWNLLDKGEKIAQEATVLKDELTASLEEVRKESEALKVSAERFTDDPCFLPKREAVVQAARALLAAVTRLLILADMIDVMCLLQHVSAFQRTFESLKNVANKSDLQKTYQKLGKELENLDYLAFKRQQDLKSPNQRDEIAGARASLKENSPLLHSICSACLEHSDVASLKASKDTVCEEIQNALNVISNASQGIQNMTTPPEPQAATLGSALDELENLIVLNPLTVTEEEIRPSLEKRLEAIISGAALLADSSCTRDLHRERIIAECNAIRQALQDLLSEYMNNAGKKERSNTLNIALDNMCKKTRDLRRQLRKAIIDHVSDSFLDTTVPLLVLIEAAKNGREKEIKEYAAIFHEHTSRLVEVANLACSMSTNEDGIKIVKIAANHLETLCPQIINAALALAARPKSQAVKNTMEMYKRTWENHIHVLTEAVDDITSIDDFLAVSGMFLFF
partner: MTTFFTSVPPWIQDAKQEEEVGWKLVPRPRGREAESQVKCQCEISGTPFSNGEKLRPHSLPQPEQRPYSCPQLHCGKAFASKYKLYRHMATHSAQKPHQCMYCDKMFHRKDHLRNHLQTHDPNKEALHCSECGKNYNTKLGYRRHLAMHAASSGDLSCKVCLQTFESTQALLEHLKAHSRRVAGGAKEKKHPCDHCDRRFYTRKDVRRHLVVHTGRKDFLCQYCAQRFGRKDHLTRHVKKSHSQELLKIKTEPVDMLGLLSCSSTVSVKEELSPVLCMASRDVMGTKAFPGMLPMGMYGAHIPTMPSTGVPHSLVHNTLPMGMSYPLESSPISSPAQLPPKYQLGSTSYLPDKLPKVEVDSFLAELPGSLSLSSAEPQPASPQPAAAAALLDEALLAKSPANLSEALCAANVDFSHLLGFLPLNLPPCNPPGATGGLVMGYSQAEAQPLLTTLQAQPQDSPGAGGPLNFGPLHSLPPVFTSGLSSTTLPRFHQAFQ
B2: Catenin alpha-3 (Homo sapiens), Q9UI47-2 (parent)
chain: B1 chain
partner: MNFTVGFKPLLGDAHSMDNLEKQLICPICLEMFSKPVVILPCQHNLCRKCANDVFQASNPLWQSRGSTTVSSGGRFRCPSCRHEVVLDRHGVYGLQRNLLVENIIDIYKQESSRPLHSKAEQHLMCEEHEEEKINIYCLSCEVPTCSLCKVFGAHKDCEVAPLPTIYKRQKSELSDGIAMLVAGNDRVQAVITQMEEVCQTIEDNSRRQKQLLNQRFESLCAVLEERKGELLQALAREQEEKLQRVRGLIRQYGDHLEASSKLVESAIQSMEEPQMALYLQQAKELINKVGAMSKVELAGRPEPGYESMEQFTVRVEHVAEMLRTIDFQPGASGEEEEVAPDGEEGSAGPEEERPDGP
B3: Golgi SNAP receptor complex member 2 (Homo sapiens), O14653 (parent)
chain: MDPLFQQTHKQVHEIQSCMGRLETADKQSVHIVENEIQASIDQIFSRLERLEILSSKEPPNKRQNARLRVDQLKYDVQHLQTALRNFQHRRHAREQQERQREELLSRTFTTNDSDTTIPMDESLQFNSSLQKVHNGMDDLILDGHNILDGLRTQRLTLKGTQKKILDIANMLGLSNTVMRLIEKRAFQDKYFMIGGMLLTCVVMFLVVQYLT
partner: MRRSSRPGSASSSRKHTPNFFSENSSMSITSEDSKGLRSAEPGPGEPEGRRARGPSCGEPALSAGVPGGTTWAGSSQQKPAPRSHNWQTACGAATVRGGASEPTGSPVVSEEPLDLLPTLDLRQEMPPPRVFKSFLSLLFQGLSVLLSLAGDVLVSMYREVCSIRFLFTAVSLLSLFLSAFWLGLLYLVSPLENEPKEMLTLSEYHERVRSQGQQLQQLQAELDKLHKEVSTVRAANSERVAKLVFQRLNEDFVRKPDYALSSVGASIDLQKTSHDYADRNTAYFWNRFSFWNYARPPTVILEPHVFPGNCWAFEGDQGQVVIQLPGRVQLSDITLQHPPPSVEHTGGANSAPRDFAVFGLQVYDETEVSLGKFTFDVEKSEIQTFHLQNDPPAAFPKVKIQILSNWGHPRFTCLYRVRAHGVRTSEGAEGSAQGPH
B4: Transmembrane protein 43 (Homo sapiens), Q9BTV4 (parent)
chain: MAANYSSTSTRREHVKVKTSSQPGFLERLSETSGGMFVGLMAFLLSFYLIFTNEGRALKTATSLAEGLSLVVSPDSIHSVAPENEGRLVHIIGALRTSKLLSDPNYGVHLPAVKLRRHVEMYQWVETEESREYTEDGQVKKETRYSYNTEWRSEIINSKNFDREIGHKNPSAMAVESFMATAPFVQIGRFFLSSGLIDKVDNFKSLSLSKLEDPHVDIIRRGDFFYHSENPKYPEVGDLRVSFSYAGLSGDDPDLGPAHVVTVIARQRGDQLVPFSTKSGDTLLLLHHGDFSAEEVFHRELRSNSMKTWGLRAAGWMAMFMGLNLMTRILYTLVDWFPVFRDLVNIGLKAFAFCVATSLTLLTVAAGWLFYRPLWALLIAGLALVPILVARTRVPAKKLE
partner: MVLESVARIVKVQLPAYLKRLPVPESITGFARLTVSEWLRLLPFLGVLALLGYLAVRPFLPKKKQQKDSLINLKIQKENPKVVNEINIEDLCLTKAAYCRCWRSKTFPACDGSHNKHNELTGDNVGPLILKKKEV
B5: Golgi SNAP receptor complex member 2 (Homo sapiens), O14653 (parent)
chain: B3 chain
partner: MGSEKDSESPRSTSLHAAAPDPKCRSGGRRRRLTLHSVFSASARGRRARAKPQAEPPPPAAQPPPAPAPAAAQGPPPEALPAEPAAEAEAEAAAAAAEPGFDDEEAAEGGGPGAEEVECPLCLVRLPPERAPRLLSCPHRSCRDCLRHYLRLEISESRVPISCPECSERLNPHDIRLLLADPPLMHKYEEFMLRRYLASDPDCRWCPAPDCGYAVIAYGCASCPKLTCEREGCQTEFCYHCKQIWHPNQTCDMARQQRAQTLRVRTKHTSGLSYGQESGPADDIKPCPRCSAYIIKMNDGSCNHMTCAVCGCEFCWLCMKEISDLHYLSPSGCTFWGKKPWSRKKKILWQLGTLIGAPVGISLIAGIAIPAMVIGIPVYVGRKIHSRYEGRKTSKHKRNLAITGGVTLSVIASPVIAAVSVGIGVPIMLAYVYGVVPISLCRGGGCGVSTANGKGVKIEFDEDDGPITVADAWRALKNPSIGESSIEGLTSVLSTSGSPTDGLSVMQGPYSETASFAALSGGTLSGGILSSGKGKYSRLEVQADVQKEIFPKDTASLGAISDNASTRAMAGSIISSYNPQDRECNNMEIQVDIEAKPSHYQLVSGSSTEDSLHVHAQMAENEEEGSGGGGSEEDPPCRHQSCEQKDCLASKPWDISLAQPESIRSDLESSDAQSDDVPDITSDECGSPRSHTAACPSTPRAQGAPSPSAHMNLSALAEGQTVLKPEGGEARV
B6: Very-long-chain enoyl-CoA reductase (Homo sapiens), Q9NZ01 (parent)
chain: MKHYEVEILDAKTREKLCFLDKVEPHATIAEIKNLFTKTHPQWYPARQSLRLDPKGKSLKDEDVLQKLPVGTTATLYFRDLGAQISWVTVFLTEYAGPLFIYLLFYFRVPFIYGHKYDFTSSRHTVVHLACICHSFHYIKRLLETLFVHRFSHGTMPLRNIFKNCTYYWGFAAWMAYYINHPLYTPPTYGAQQVKLALAIFVICQLGNFSIHMALRDLRPAGSKTRKIPYPTKNPFTWLFLLVSCPNYTYEVGSWIGFAIMTQCLPVALFSLVGFTQMTIWAKGKHRSYLKEFRDYPPLRMPIIPFLL
partner: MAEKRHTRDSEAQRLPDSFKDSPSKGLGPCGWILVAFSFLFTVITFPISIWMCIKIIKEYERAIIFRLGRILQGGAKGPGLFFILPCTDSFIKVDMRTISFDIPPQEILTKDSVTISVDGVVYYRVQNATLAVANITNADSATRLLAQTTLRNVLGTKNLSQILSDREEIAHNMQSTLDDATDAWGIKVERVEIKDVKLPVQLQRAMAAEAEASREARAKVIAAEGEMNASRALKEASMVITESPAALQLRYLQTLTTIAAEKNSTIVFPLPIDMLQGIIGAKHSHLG
B7: Golgi SNAP receptor complex member 2 (Homo sapiens), O14653 (parent)
chain: B3 chain
partner: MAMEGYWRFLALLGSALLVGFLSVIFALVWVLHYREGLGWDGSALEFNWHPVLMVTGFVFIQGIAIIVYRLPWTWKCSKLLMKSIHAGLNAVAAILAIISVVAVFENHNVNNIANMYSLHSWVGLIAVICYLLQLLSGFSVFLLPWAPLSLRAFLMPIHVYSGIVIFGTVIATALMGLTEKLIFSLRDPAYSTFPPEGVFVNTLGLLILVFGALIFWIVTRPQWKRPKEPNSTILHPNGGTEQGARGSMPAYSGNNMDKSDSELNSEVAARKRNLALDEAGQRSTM

Variants of: B1
Details: with plal2_human PLAGL2, Q9UPG8

| Variant | effect of a mutation on the interaction |
| --- | --- |
| V94D | disrupting interaction strength |

Variants of: B2
Details: with tri54_human TRIM54, Q9BYV2

| Variant | effect of a mutation on the interaction |
| --- | --- |
| V94D | disrupting interaction strength |

Variants of: B3
Details: with spag4_human SPAG4, Q9NPE6

| Variant | effect of a mutation on the interaction |
| --- | --- |
| G144W | with no effect |

Variants of: B4
Details: with cisd2_human CISD2, Q8N5K1

| effect of a mutation on the interaction | Variant |
| --- | --- |
| disrupting interaction strength | E85K |
| with no effect | I91V |

Continued, variant first:

| Variant | effect of a mutation on the interaction |
| --- | --- |
| E142K | disrupting interaction strength |
| R28W | with no effect |
| Y371H | with no effect |

Variants of: B5
Details: with rn19b_human RNF19B

| Variant | effect of a mutation on the interaction |
| --- | --- |
| G144W | with no effect |

Variants of: B6
Details: with stom_human STOM

| Variant | effect of a mutation on the interaction |
| --- | --- |
| P182L | disrupting interaction strength |

Variants of: B7
Details: with cybr1_human CYBRD1, Q53TN4

| Variant | effect of a mutation on the interaction |
| --- | --- |
| G144W | with no effect |
